We go through 167 variants from the RNAGym collection of RNA variant scans (doi:10.1073/pnas.2313332121).

The labels stand for the following.
B1: TPR t1 (parent)
chain: GACCAAUCUGCCCUCAGAGCUCGAGAACAUCUUCGGAUGCAGAGGAGGCAGGCUUCGGUGGCGCGAUAGCGCCAACGUCCUCAACCUCCAAUGCAUCCCACCACAUGAUGAUGCCUGAAGAGCCUUGGUUUUUUG

In the series the parent is B1. Put plainly: polymerase ribozyme fitness, log enrichment relative to wild type (log ratio); higher = more active; in vitro selection for triplet polymerase activity. Summed up: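 Each subunit of a heterodimeric triplet polymerase ribozyme was represented by a PCR-built, transcribed mutant library that underwent triplicate single-round in vitro selection with frozen incubation at −7 °C. Extended constructs were recovered by gel excision, streptavidin-bead capture and RT-PCR, and Illumina sequencing of input and output libraries kept genotypes with ≥10 input reads and ≥1 read per output. Fitness is the logarithm of genotype enrichment relative to wild-type enrichment, from inverse-variance-weighted replicate averages, with a logarithm base of 2.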
For G57U A66C, the “polymerase ribozyme fitness (log ratio)” value was -1.65.
Turning to C56U U116A G117C, the “polymerase ribozyme fitness (log ratio)” value is -1.64.
The result for U59A A95G U125G reads -0.633.
With G57A C82A C102A, the “polymerase ribozyme fitness (log ratio)” value is -4.09.
On to G57U A74U C79U, for which the “polymerase ribozyme fitness (log ratio)” value was -0.181.
The result for G57A G93C U130G reads -3.23.
For C56U U116C, the “polymerase ribozyme fitness (log ratio)” value is -0.494.
On to G57A G107A, for which the “polymerase ribozyme fitness (log ratio)” value is -6.98.
Regarding G57U G60U C123U, the “polymerase ribozyme fitness (log ratio)” value came out at 0.317.
The result for U59C C97U C114G reads -4.47.
Regarding G57C C94A C97U A121U G122U, the “polymerase ribozyme fitness (log ratio)” value was -1.21.
Turning to C56U U106G U112G A118C U133G, the “polymerase ribozyme fitness (log ratio)” value is -0.872.
The result for G58C G61U C94A U116A reads -3.54; that for U59A A105C U112C, -0.41.
On to U59A A91G A100U G113A, for which the “polymerase ribozyme fitness (log ratio)” value is -3.07.
With G57U G60C G61C G113A, the “polymerase ribozyme fitness (log ratio)” value was -4.44.
Take G58C C86A C115U: the “polymerase ribozyme fitness (log ratio)” value is -2.72.
Next, G57U U112A: 1.54; G58C A68G C86A C115U: -6.11.
The result for U59A U92C reads -1.76; that for C56U U126G, -1.91; that for C56U U126A, -1.39.
Take U59G C82A G110A: the “polymerase ribozyme fitness (log ratio)” value is -0.532.
Next, G58A C72G C82A G110C G113A: -6.33.
Next, G57C G60U C88A U106A: -0.528; U59A A83U G93A: -0.452; G58C G60U G93U U96G: -1.73.
For U59G C72U C82A G110A, the “polymerase ribozyme fitness (log ratio)” value is -1.21.
The result for G58C C123G reads 1.75; that for U59C C79U C114U, -1.91.
G58A A91C C101A: the “polymerase ribozyme fitness (log ratio)” value was -1.1.
Turning to G57U C64U U78G C88A C98U U131C, the “polymerase ribozyme fitness (log ratio)” value is -2.15.
The result for G58A C72G G127A reads -1.35; that for G57C U78C, 0.0872.
G57U C123A: the “polymerase ribozyme fitness (log ratio)” value was 0.124.
The result for G58U C64U U78C U96C C124U U126C U133G reads -0.65.
Next, U59A G61U G117U: -2.27; G57C U112G: 0.543; G57C A83C A111G G122A G127A: -3.51.
Next, U59C U81C U106A: -0.294; G58C C98A: -5.61; U59A G113U: -2.9.
Turning to G60A C73A A91C G113U, the “polymerase ribozyme fitness (log ratio)” value is -3.43.
The result for G57A C89U U130C reads -0.888; that for U59C C86U G127C, -2.09; that for U59G C101G C114U, -2.59.
Next, U59A G71A C101U C124A: 1.02; U59A U81A G107A C114U: -2.96.
The result for G58A A83C reads -0.717.
G57C U78C U87C C102A C124A: the “polymerase ribozyme fitness (log ratio)” value was -0.477.
On to G57A A103C G120C C124A, for which the “polymerase ribozyme fitness (log ratio)” value is -4.81.
Next, U59C G120C G128U U130A: 1.03.
The result for G57U C62A U125A reads -4.41; that for G58C C97U U116G G135C, -3.26; that for G58A G61A C73A U92A, -5.1.
Next, G58A C70U C79G A100C: -6.76; G58C C62U: -1.01.
As for U59C C62U C85A C115U, the “polymerase ribozyme fitness (log ratio)” value was -2.93.
The result for G58C U116C reads -0.944; that for G58C C62A G69U A119U, -0.99; that for U59G A68G, -3.01.
Next, G57A G61A: -0.154.
The result for G57A U81C G93C G120A reads -1.39; that for G58A G117A G120A U132C, -3.08.
For the variant G57A U130A, the “polymerase ribozyme fitness (log ratio)” value is -1.13.
U59C U130G: the “polymerase ribozyme fitness (log ratio)” value is -0.745.
Next, G57C G107C: -6.59.
Next, G57U G117A G135U: -2.73.
Turning to G57A G58A U81A U106C, the “polymerase ribozyme fitness (log ratio)” value is -2.54.
The result for G57U G107U reads -5.11; that for G57C C104U G110C U131A, -4.01.
G58C G71U C82G C88G: the “polymerase ribozyme fitness (log ratio)” value was -2.93.
G58A A84U: the “polymerase ribozyme fitness (log ratio)” value was -0.731.
On to U59A A74U, for which the “polymerase ribozyme fitness (log ratio)” value is -0.959.
As to U59G G117U U131G, the “polymerase ribozyme fitness (log ratio)” value is -4.31.
G57U G120C: the “polymerase ribozyme fitness (log ratio)” value turned out to be 0.593.
The result for C56U U116G C123U reads -1.77; that for G57U G60C U96G, -2.78.
The result for C56U U112C A118C reads 1.53; that for G57C G61C C88G G113U U116C A121U, -6.29; that for G58C A111G G120A, -1.36.
Take G58U C115A: the “polymerase ribozyme fitness (log ratio)” value was -0.324.
As for G57U G113U, the “polymerase ribozyme fitness (log ratio)” value is -1.79.
The result for G58U G69A A111C reads -5.38.
As for U59A G60U C89G C97U, the “polymerase ribozyme fitness (log ratio)” value is -2.98.
Turning to G58C U109A C114U, the “polymerase ribozyme fitness (log ratio)” value is -5.23.
Next, G57U G60A C80U G122U: -2.06.
On to G58C C97A A103U G120C, for which the “polymerase ribozyme fitness (log ratio)” value was -6.84.
The result for U59A U116G G120C reads -0.387; that for G57U C70U C89U, -1.44; that for G60A A74G, -2.01.
Next, G58A C64U A66U U130A: -2.13; G57U C82G: 0.0757; G57U G61C G135A: -2.69.
As to U59C A105U, the “polymerase ribozyme fitness (log ratio)” value is -2.63.
Next, U59A C62U C82U G120A: 0.193; U59A G60A C80U A95C G120U: -2.35; G57A G71U: -0.925.
Next, U59G G120U C124U: 1.23; G57U U92A G120A A121C: -2.28; C56U U132C: -0.156.
The result for G58C G63C C82A U106G G113U reads -5.77.
For the variant G57A C124A, the “polymerase ribozyme fitness (log ratio)” value was found to be 0.954.
Take C56U U129G: the “polymerase ribozyme fitness (log ratio)” value was -0.409.
Turning to U59C C79A G122A C123A U132A, the “polymerase ribozyme fitness (log ratio)” value was -2.39.
The result for G57U C72U U109A C114G reads -5.21.
Turning to G58U U106C C124U U130A, the “polymerase ribozyme fitness (log ratio)” value is -0.269.
The result for G57U U87G reads 0.0269; that for G57U U87A, -0.845; that for G60A A118C, -3.63.
G57C C89A A95G A111U A121U: the “polymerase ribozyme fitness (log ratio)” value was -2.97.
Next, U59G U78C C115U U130C: -1.13; G58C C94A: -0.207; G57U G60C A84U C99A C101U G117U: -6.95.
For G57C G93U A111U G113C C114A C115U U125A, the “polymerase ribozyme fitness (log ratio)” value is -7.73.
The result for G58C C85U G120A reads 0.436.
Next, G58U A111C: -0.00673; G58U C86U G110U G122A: -3.85; U59A C80U: -0.689.
As for G58U, the “polymerase ribozyme fitness (log ratio)” value was -0.329.
Regarding G58C, the “polymerase ribozyme fitness (log ratio)” value was 0.031.
Turning to G58A, the “polymerase ribozyme fitness (log ratio)” value was found to be 0.0445.
G57C C72U U129A: the “polymerase ribozyme fitness (log ratio)” value is -1.29.
Take G57U C88A A95U A121U C124U: the “polymerase ribozyme fitness (log ratio)” value is -1.04.
Turning to G60A A111U, the “polymerase ribozyme fitness (log ratio)” value was -3.16.
The result for U59A A105G G113A U130C G135U reads -5.1.
Take G58C G61A U92C: the “polymerase ribozyme fitness (log ratio)” value was -1.98.
Next, G57U G110A: -1.16.
Next, U59C G61C: -3.23; G58C C70A G77C G117A: -7.23.
Next, G57A C73G G127C: -2.37; G58C C72U C123G G128A: 0.86; G60A C72G U131A: -1.09.
With U59G C97A, the “polymerase ribozyme fitness (log ratio)” value is -4.8.
The result for U59G C80A A121C reads -0.276; that for G57C C64A C124U, -6.08; that for G58A C73U, -0.192.
As to G58A C99U G122A, the “polymerase ribozyme fitness (log ratio)” value was -5.04.
Consider G57A G58A A83U, for which the “polymerase ribozyme fitness (log ratio)” value is -0.302.
Next, U59G U81A: -0.876.
The result for U59C G69U U81A reads -1.48; that for G57A G63U U78C A95C C115A, -2.54; that for U59A U129G, -1.18.
For U59G A111G, the “polymerase ribozyme fitness (log ratio)” value is 0.731.
In the case of G60A C76G, the “polymerase ribozyme fitness (log ratio)” value is -2.57.
Take G60A C76U: the “polymerase ribozyme fitness (log ratio)” value is -1.
Next, G57A C79U C102G G107U C115G C124U U129G: -5.93; G57A A66U C115G: -4.64; U59C G117C: -3.91.
The result for U59C G117U reads -2.88; that for G57C G61A, -1.82.
Next, G58C C80A U96G: -4.46; G57A U116G: -3.51; U59A C64U C85A G110U U133C: -2.9.
Consider U59C U109G, for which the “polymerase ribozyme fitness (log ratio)” value was -5.76.
For G57A C88U U112G, the “polymerase ribozyme fitness (log ratio)” value was -2.79.
Turning to U59C U112A, the “polymerase ribozyme fitness (log ratio)” value was -0.182.
The result for C56U U106G U116C reads -3.48; that for U59G C73U U87G U116A, -4.15.
On to G57U C62G, for which the “polymerase ribozyme fitness (log ratio)” value is -1.62.
Next, U59G C114A: -1.42; U59C U87A: -0.642.
Consider G60A A95G C104A U132C, for which the “polymerase ribozyme fitness (log ratio)” value is -2.06.
Regarding U59C G93U, the “polymerase ribozyme fitness (log ratio)” value is -1.12.
As for G57C C73U C101A A111C, the “polymerase ribozyme fitness (log ratio)” value was -0.202.
The result for U59A C62G U87A U129C U130G reads -4.15; that for C56U U112A, 1.66.
